{
  "source": "paper PMC6832383",
  "about": "“Co-Immobilization of Tri-Enzymes for the Conversion of Hydroxymethylfurfural to 2,5-Diformylfuran” (Molecules, 2019)",
  "key": {"[1]": {"tested_on": "T1, horseradish peroxidase", "T1 construct": "gene PRXC1A", "experiment": "spectrophotometric initial rates at […] nm (purpurogallin), non-linear Michaelis-Menten fit", "format": "biochemical, Armoracia rusticana", "conditions": "free enzyme; co-substrate 10 mM H2O2; 100 mM phosphate pH 6.0; 30 °C; pyrogallol 1-8 mM"}, "[2]": {"tested_on": "COc1cccc(CO)c1", "experiment": "purified protein", "conditions": "free enzyme, Tris-HCl 50 mM pH 7.1, 37 °C, substrate 3-60 mM"}},
  "data": [
    {"compound": "Oc1cccc(O)c1O", "note": "[pyrogallol]", "values": [
      {"measurement": "Km", "setting": "[1]", "result": "2210 ± 40", "unit": "µM"}
    ]},
    {"compound": "galactose oxidase (Fusarium graminearum)", "values": [
      {"measurement": "Km", "setting": "[2]", "result": "17600 ± 1300", "unit": "µM"},
      {"measurement": "Vmax", "setting": "[2]", "result": 216, "unit": "µmol/min/mg"}
    ]}
  ]
}
